The text below walks through data of US12600782 (BIOTHEUS, dated 2026).

In the experiment the target is T1, human PD-1 on CHO cells (CHO-hPD-1 cells) (human, UniProt Q15116 25-288).
T1 construct: whole, on cells
Description: flow cytometry: biotinylated human PD-L2 protein (1 ug/ml) on CHO-hPD-1 cells, no antibody. On the procedure: CHO cells overexpressing human PD-1 (CHO-hPD-1 cells) were generated by transfection of the pCHO1.0 vector (purchased from Invitrogen™) cloning human PD-1 cDNA (purchased from Sino Biological). The expanded CHO-hPD-1 cells were adjusted to a cell density of 2×10⁶ cells/ml, and were added to 96-well flow plate at 100 μl/well, and centrifuged for later use. The purified mutant sample was diluted with PBS and diluted 3 times from […] for 12 points. […] The co-incubation sample was added to the above-mentioned 96-well flow plate with cells 100 μl/well, incubated at 4° C. for 30 min, and washed twice with PBS. APC goat anti-mouse IgG (minimum×reactive) antibody diluted 100 times with PBS (purchased from Biolegend®) was added at 100 μl/well, incubated at 4° C. for 30 min, and washed twice with PBS. PBS was added at 100 μl/well to resuspend cells, and detection was performed on a CytoFlex (Bechman) flow cytometer and the corresponding MFI was calculated.

T1 sequence (Q15116 25-288): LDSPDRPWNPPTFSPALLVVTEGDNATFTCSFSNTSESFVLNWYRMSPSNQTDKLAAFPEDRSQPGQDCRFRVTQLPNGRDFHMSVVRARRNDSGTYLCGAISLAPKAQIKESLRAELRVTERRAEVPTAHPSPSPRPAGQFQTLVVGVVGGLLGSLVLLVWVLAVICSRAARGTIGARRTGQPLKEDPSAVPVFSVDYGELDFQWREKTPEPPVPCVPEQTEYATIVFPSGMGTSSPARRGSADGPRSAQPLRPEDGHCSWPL

B1: human PD-L2 protein (purchased from AcroBiosystems) (ligand, UniProt Q9BQ51 20-219, looked up)
chain: LFTVTVPKELYIIEHGSNVTLECNFDTGSHVNLGAITASLQKVENDTSPHRERATLLEEQLPLGKASFHIPQVQVRDEGQYQCIIIYGVAWDYKYLTLKVKASYRKINTHILKVPETDEVELTCQATGYPLAEVSWPNVSVPANTSHSRTPEGLYQVTSVLRLKPPPGRNFSCVFWNTHVRELTLASIDLQSQMEPRTHP
modifications: biotinylated in the blocking assays
notes: Bought soluble protein; also called PD-L2 antigen; biotinylated human PD-L2 protein
On to B1, for which the binding result is “binds”.
